The numbers were not newly measured in PMC11173308, which cites them from elsewhere.

This data set concerns the target calmodulin (UniProt P0DP23).

As to arrestin-2 (from UniProt P17870), the Kd – broadly, the constant that tells how readily two partners part at equilibrium – was 7 µM.
